Experiment in all cases: spectrophotometric product formation, Michaelis-Menten fit
Holding throughout (format): biochemical, Anopheles gambiae

Substrate in data set [1]: Oc1ccc(O)cc1
Conditions: pH 6.5, 0.1 M Mes; pH 6.5. An excerpt:
(§1) spectrophotometric product formation, Michaelis-Menten fit on AgMCO3

Substrate in data set [2]: NCCC(=O)NCCc1ccc(O)c(O)c1
Conditions: pH 7.0, 0.1 M sodium phosphate; pH 7.0.
Text: as §1

Substrate in data set [3]: Oc1ccccc1O
The note with it: pH 7.0, 0.1 M sodium phosphate; pH 7.0.
Text: as §1

Substrate in data set [4]: N[C@@H](Cc1ccc(O)c(O)c1)C(=O)O
The note with it: pH 7.5, 0.1 M sodium phosphate; pH 7.5.
Text: as §1

Substrate in data set [5]: NCCc1ccc(O)c(O)c1
Conditions: pH 7.5, 0.1 M sodium phosphate; pH 7.5.
Text: as §1

Substrate in data set [6]: CC(=O)NCCc1ccc(O)c(O)c1
The note with it: pH 7.5, 0.1 M sodium phosphate; pH 7.5.
Text: as §1

Substrate in data set [7]: CCn1c(=NN=c2sc3cc(S(=O)(=O)O)ccc3n2CC)sc2cc(S(=O)(=O)O)ccc21
The note with it: pH 6.0, 0.1 M Mes; pH 6.0.
Text: as §1

B1: AgMCO3 (Anopheles gambiae) (protein)
chain: QSWLNTLLEQSNGTLDVSTFPGEQCLRECDNTQPRICHFSWTMEHYHVMGPACRDCAKGNHTDCYHPACITADGVERGVMSLNRKIPGPTISVCRHDLIVVDITNAMAGTSAAIHWHGLHQRATPYMDGVPFITQCPIGFGNTFRYAFLATEPGTQFYHSHSGHHKVNGHYGALIVREPKRVDPNGDLYHYDTPAHVILGSDWMHIDGEMFMPGLPSAGGIMPINLLINGKGTYHDPKKNETTQTPLEVYTVRRGARFRFRFINAASHVCPLQLQIEDHMMEVIASDSFHLQPRKVDTLVSTSGERYDFVLEANGVKDTYWVRLRSLGPCADLQLEQFAVLRYTTGPFINDAFPTGAPPTYEEPFRNVATANHPNATCGRPEFGDYCITDFQAYDTDEDVINGVPDHQLTFGFYNYPVSFESMFESNRYEHYMNIYGSVMMQGAINNISLAYPPFSLLTQPEKIRDDTFCDEDNRPDSCSDRQLCTCTHRVKINLGDIVELYILDLTPSVNDLNHPFHLHGYQMFVMEMSQDRRVPITLEIAQNIARQRLLSRNTVALPPRKDTVSIPSRGYARVRFRADNPGFWLMHCHYEWHTAVGMALVLQVGETSEMVKAPADFPKCDSYTPAVGHLLQGSL
notes: no tag mentioned; baculovirus / Sf9 host; cDNA identical to EF592176.2 except Leu instead of Pro at residue 15 in signal peptide (probable GenBank error)
The term Km denotes the substrate concentration at which the rate is half of its maximum. A word on the kcat: it is the number of substrate molecules converted per active site and unit of time at saturation. Usually kcat/Km stands for the turnover number divided by the Michaelis constant. Consider B1, for which the Km came to 5200 µM in data set [1]; 2200 µM in data set [2]; 2100 µM in data set [3]; 1400 µM in data set [4]; 1600 µM in data set [5]; 1000 µM in data set [6]. In addition, the Km in data set [7] was found to be 8500 µM. The kcat was 26.2 s⁻¹ in data set [1]; 11.8 s⁻¹ in data set [2]; 5.1 s⁻¹ in data set [3]; 1.55 s⁻¹ in data set [4]; 4.57 s⁻¹ in data set [5]; 2.58 s⁻¹ in data set [6]. Moreover, in data set [7], the turnover number (kcat) is 2.6 s⁻¹. For the same protein, the specificity constant (kcat/Km) stood at 5030 M⁻¹ s⁻¹ in data set [1]; 5380 M⁻¹ s⁻¹ in data set [2]; 2430 M⁻¹ s⁻¹ in data set [3]; 1100 M⁻¹ s⁻¹ in data set [4]; 2850 M⁻¹ s⁻¹ in data set [5]; 2580 M⁻¹ s⁻¹ in data set [6]. The kcat/Km in data set [7] came out at 300 M⁻¹ s⁻¹.

The values are drawn from PMC3313952, “Multicopper Oxidase-3 Is a Laccase Associated with the Peritrophic Matrix of Anopheles gambiae” (PLoS ONE, 2012).
